We go through 4 molecules from patent publication US20250084163A1 (published 2025).

As a reminder, the Kd is the concentration at which binding is half-saturated.

What all share (test): SPR
(SPR reads the build-up and loss of mass on a sensor chip optically.)

Experiment [1] concerns the target T1, Recombinant truncated human his-tag ROR1 extracellular domain protein (UniProt Q01973 30-403).
The target of experiment [2] is T1, Recombinant truncated human his-tag …. The source holds these as a separate data set.
The target is the same in experiment [3]. This is another data set of the same source.

Read-outs that look alike come from different tables or passages of the source.

T1 sequence (Q01973 other isoform, or with tags, fused parts or gaps): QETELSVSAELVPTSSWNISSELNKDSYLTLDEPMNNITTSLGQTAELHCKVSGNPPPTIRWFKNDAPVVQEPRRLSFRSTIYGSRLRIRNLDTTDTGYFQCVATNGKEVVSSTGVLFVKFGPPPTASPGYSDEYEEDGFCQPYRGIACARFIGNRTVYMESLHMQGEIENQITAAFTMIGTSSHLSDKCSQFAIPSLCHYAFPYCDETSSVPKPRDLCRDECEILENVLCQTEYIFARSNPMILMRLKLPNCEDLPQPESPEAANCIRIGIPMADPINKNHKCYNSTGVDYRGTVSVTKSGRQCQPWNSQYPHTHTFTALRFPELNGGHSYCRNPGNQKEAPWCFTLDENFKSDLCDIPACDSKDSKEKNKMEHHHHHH

B1: RO6D8-jlv1011 (antibody, V domains shown)
VH: QVQLVQSGAEVKKPGASVKVSCKASGYTFTSKYYHWVRQAPGQGLEWMGIINPTSGSTSYAQKFQGRVTMTRDTSTSTVYMELSSLRSEDTAVYYCARDSSRYSGWYFDLWGQGTTVTVSS
VL: AIQLTQSPSSLSASVGDRVTITCRASQGVSTEIAWYQQKPGKAPKLLIYAASSLQSGVPSRFSGSGSGTDFTLTISSLQPEDFATYYCQQYYGYPIAFGQGTRLEIK
With B1, the Kd in experiment [1] and in experiment [2] was 0.796 nM each time.

B2: RO6D8-s10 (antibody, V domains shown)
VH: QVQLVQSGAEVKKPGASVKVSCKASGYTFTNYYMHWVRQAPGQGLEWMGIINPSGGSTSYAQKFQGRVTMTRDTSTSTVYMELSSLRSEDTAVYYCARSSRSSYYLWVLDLWGQGTTVTVSS
VL: AIQMTQSPSSLSASVGDRVTITCRASQGVSTEIAWYQQKPGKAPKLLIYAASSLQSGVPSRFSGSGSGTDFTLTISSLQPEDFATYYCQQFNSYPITFGQGTRLEIK
Regarding B2, the Kd in experiment [1] and in experiment [3] was 2.46 nM in each case.

B3: RO6D8wt (antibody, V domains shown)
VH: QVQLVQSGAEVKKPGASVKVSCKASGYTFTNYYMHWVRQAPGQGLEWMGIINPSGGSTSYAQKFQGRVTMTRDTSTSTVYMELSSLRSEDTAVYYCARDSSSWYSGWYFDLWGQGTTVTVSS
VL: AIQMTQSPSSLSASVGDRVTITCRASQDVRAHLAWYQQKPGKAPKLLIYAASSLQSGVPSRFSGSGSGTDFTLTISSLQPEDFATYYCQQFNSYPITFGQGTRLEIK
B3: the Kd in experiment [1] and in experiment [3] was 118 nM throughout.

B4: RO6D8-011 (antibody, V domains shown)
VH: QVQLVQSGAEVKKPGASVKVSCKASGYTFTNYYMHWVRQAPGQGLEWMGIINPTSGRTSYAQKFQGRVTMTRDTSTSTVYMELSSLRSEDTAVYYCARDSSSWYSGWYFDLWGQGTTVTVSS
VL: AIQMTQSPSSLSASVGDRVTITCRASQGIRTDLAWYQQKPGKAPKLLIYAASSLQSGVPSRFSGSGSGTDFTLTISSLQPEDFATYYCQQYYGYPIAFGQGTRLEIK
As to B4, the Kd in experiment [1] and in experiment [2] was 2.48 nM each time.
